# Legend:
# HeLa Kyoto [1] = test: solubility in G1/S (NP-40 vs SDS abundance) (log2 ratio); higher = more soluble; conditions: cell cycle stage: G1/S
# HeLa Kyoto [2] = test: thermal stability score vs G1/S (z-score of summed log2 fold changes over temperatures); higher = more thermally stable than in G1/S
# HeLa Kyoto [3] = test: solubility change mitosis vs G1/S (difference of NP-40 vs SDS log2 ratios) (log2 ratio difference); higher = more soluble in mitosis
# HeLa Kyoto [4] = test: melting temperature (median over replicates), in situ; higher = more thermally stable
# [5] = cell cycle stage: early G1 (4.5 h after nocodazole release)
# 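For melting temperature (median over replicates), in situ in this document: HeLa Kyoto cells synchronized by double thymidine or nocodazole block, proteins quantified by TMT10plex mass spectrometry, three independent biological replicates.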
# 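For solubility change mitosis vs G1/S (difference of NP-40 vs SDS log2 ratios) in this document: synchronized HeLa Kyoto cells (double thymidine block for G1/S, nocodazole release for mitosis), protein amounts in NP-40 versus SDS lysates quantified by mass spectrometry, three biological replicates.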
# 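For solubility in G1/S (NP-40 vs SDS abundance) in this document: HeLa Kyoto cells arrested at G1/S by double thymidine block, proteins quantified by TMT10plex mass spectrometry in mild NP-40 versus SDS extracts, three biological replicates.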
# 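For thermal stability score vs G1/S (z-score of summed log2 fold changes over temperatures) in this document: synchronized HeLa Kyoto cells, proteins quantified by TMT10plex mass spectrometry, three biological replicates, mitosis taken 0.5 h after nocodazole release, G1/S directly after double thymidine block.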
# Chain of EMC10 (chain, as listed by the source): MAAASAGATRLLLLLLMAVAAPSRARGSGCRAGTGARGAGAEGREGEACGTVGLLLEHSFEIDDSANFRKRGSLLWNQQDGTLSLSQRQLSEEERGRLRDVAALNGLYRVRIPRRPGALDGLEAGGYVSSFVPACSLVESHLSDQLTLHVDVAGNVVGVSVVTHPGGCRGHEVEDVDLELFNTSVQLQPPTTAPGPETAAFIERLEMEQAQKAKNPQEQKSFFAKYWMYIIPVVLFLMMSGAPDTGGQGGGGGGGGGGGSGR
# Chain of DCK (chain, as listed by the source): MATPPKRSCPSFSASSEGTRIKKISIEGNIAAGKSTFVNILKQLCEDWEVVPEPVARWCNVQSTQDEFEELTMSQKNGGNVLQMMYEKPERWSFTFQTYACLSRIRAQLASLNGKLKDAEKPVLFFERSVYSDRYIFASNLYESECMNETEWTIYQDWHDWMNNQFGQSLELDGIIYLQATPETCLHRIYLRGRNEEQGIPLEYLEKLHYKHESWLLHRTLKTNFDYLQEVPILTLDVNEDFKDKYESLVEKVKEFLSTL
# Chain of C5ORF22 (chain, as listed by the source): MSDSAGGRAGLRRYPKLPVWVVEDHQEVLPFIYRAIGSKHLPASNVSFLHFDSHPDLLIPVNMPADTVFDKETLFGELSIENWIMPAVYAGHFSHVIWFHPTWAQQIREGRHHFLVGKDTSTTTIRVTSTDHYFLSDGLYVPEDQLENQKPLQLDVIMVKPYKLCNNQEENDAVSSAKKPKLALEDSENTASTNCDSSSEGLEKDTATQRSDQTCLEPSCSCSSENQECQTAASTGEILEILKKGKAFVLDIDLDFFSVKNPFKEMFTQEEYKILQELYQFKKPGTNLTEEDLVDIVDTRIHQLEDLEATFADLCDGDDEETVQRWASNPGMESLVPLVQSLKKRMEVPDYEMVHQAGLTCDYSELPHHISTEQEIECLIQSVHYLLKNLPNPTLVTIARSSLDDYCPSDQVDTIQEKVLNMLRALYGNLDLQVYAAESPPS
# Chain of DENND4C (chain, as listed by the source): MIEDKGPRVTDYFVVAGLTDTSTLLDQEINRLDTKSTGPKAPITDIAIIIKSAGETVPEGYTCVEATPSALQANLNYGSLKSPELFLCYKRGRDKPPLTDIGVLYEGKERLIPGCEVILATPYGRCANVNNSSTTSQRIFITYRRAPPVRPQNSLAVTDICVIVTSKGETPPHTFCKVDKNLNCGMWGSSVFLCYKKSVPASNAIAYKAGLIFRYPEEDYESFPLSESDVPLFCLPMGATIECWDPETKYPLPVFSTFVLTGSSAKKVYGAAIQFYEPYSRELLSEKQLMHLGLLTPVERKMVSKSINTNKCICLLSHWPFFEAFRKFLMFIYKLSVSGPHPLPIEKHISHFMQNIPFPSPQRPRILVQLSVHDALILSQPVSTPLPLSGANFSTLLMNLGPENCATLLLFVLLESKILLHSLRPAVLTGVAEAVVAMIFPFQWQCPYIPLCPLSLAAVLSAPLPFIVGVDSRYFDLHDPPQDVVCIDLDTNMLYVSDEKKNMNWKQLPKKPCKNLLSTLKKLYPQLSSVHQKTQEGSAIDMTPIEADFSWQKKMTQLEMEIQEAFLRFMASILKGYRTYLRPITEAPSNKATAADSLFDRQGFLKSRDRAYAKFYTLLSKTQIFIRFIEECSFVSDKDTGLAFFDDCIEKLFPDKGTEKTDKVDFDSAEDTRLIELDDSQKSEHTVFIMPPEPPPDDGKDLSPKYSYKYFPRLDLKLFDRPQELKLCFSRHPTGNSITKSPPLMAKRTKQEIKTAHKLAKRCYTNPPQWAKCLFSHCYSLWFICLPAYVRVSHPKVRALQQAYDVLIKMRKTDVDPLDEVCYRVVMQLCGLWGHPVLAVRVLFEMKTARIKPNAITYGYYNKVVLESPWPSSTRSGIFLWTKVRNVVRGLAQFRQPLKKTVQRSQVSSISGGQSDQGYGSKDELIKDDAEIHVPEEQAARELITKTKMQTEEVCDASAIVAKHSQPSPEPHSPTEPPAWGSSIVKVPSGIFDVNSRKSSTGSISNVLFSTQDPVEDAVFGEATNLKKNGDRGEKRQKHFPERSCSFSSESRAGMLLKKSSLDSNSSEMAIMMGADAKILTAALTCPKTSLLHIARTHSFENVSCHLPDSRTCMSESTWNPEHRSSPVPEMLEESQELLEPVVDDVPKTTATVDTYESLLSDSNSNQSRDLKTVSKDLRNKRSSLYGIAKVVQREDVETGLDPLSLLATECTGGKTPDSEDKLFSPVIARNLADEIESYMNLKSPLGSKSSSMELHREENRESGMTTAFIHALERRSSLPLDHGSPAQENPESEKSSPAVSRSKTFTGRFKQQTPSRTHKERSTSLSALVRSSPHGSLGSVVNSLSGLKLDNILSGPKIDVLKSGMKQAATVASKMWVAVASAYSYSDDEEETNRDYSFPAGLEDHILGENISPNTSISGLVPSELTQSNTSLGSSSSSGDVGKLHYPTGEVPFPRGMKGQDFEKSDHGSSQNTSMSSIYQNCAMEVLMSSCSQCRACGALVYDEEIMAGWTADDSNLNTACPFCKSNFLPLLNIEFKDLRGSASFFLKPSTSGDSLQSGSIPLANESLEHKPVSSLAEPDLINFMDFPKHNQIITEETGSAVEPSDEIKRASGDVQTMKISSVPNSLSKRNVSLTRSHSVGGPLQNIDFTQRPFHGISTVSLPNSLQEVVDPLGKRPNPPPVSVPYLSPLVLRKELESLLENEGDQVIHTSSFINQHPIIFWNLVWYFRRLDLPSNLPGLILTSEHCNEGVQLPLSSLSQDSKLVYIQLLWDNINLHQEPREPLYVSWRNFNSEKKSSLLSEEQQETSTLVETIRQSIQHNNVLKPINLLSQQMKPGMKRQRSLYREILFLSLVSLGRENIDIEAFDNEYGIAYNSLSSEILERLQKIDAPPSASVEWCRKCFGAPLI
# Chain of ASNA1 (chain, as listed by the source): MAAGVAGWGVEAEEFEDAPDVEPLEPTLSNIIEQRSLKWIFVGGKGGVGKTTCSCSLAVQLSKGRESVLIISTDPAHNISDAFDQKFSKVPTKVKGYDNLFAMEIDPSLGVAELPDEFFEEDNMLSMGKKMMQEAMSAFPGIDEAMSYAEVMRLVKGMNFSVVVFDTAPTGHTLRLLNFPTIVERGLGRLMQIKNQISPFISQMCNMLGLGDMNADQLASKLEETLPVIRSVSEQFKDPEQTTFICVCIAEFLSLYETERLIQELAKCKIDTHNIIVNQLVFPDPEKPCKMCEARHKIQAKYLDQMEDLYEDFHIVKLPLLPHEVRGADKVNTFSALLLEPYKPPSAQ
# Chain of COL5A2 (chain, as listed by the source): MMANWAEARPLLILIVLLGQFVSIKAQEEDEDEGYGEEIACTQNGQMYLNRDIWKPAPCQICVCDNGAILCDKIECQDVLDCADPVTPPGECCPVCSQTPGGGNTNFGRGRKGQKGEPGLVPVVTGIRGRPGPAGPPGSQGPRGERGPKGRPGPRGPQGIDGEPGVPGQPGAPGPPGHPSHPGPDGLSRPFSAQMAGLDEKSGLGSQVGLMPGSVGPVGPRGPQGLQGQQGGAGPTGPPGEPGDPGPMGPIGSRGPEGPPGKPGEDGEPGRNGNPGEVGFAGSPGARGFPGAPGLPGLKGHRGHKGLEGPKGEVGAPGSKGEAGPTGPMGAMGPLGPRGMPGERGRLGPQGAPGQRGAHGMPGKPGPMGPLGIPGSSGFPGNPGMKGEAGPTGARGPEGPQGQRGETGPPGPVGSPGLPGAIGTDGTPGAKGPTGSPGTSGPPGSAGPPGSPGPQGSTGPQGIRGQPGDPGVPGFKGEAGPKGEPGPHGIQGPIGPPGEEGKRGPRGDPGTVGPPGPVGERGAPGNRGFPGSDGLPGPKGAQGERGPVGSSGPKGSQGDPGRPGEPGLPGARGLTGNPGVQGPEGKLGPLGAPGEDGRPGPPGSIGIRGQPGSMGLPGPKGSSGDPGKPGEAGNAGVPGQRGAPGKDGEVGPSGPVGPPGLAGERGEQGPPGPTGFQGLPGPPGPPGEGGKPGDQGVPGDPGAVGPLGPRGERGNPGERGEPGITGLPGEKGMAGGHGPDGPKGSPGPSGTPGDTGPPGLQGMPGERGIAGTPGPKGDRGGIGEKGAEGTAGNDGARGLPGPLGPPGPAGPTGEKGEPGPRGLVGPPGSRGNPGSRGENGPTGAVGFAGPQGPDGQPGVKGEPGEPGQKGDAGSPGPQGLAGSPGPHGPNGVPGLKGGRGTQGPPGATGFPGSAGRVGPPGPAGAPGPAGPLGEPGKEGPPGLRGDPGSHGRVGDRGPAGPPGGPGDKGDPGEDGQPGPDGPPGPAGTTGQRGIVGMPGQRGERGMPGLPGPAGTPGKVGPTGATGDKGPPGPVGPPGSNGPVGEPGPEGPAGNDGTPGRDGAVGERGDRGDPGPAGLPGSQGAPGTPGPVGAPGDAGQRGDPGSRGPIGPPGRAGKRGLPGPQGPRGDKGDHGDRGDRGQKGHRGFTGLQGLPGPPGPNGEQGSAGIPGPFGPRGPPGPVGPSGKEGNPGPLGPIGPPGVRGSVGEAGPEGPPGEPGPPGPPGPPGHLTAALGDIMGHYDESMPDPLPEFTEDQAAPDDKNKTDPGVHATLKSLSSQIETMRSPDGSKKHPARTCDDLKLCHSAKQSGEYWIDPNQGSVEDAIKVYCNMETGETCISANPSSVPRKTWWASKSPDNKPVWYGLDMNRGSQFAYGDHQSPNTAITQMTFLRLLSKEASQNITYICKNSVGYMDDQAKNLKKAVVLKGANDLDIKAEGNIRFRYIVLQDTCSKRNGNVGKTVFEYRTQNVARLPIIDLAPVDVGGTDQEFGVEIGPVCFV
# Chain of CSNK2B (chain, as listed by the source): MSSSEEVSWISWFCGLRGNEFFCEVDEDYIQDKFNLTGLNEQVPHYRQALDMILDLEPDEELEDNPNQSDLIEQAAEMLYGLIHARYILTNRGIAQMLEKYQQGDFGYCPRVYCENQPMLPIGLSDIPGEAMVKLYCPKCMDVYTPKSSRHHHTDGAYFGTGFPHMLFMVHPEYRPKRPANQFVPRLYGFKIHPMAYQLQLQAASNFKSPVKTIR
Substance,solubility in G1/S (log2) (HeLa Kyoto [1]),thermal stability score (HeLa Kyoto [2]; [5]),thermal stability score (HeLa Kyoto [2]; cell cycle stage: mitosis),solubility change mitosis (log2) (HeLa Kyoto [3]),melting temperature (HeLa Kyoto [4]; cell cycle stage: G1/S),melting temperature (HeLa Kyoto [4]; cell cycle stage: mitosis)
ABCC2,-0.128,0.294,-0.626,-0.0305,51.6 °C,51.6 °C
ABCC5,-0.243,-0.48,-1.25,0.0132,53.6 °C,53.8 °C
ACP2,0.434,-1.34,-0.755,0.018,56.1 °C,57.2 °C
AFG3L2,0.107,2.84,0.443,-0.0792,51.8 °C,51.9 °C
AGAP3,0.259,0.047,0.315,-0.0465,49.3 °C,49.9 °C
AGL,-0.215,-0.229,-0.757,-0.204,51.1 °C,50.6 °C
AHCTF1,-1.38,-1.63,-0.353,1.06,50.7 °C,50.5 °C
ALDH16A1,0.152,-4.57,-4.01,-0.043,58 °C,56.3 °C
ARHGEF5,0.0254,0.0128,1.32,-0.0134,50.6 °C,51.4 °C
ARNT,0.243,0.603,0.868,-0.182,51.9 °C,51.7 °C
ASNA1,0.349,0.0219,1.19,-0.258,53.4 °C,54.6 °C
ATG3,0.11,0.129,-0.694,-0.0379,54.3 °C,54.1 °C
BAG3,0.185,1.43,5.24,1.06,53.6 °C,53.1 °C
BAZ1A,-0.551,1.48,3.95,0.356,45.9 °C,49 °C
BOD1L1,-0.161,-3.05,-3.12,0.0131,56 °C,56 °C
C5ORF22,0.303,-0.108,1.41,-0.166,50.7 °C,–
CAMSAP1,-0.149,-0.2,0.324,0.0139,50.4 °C,50.2 °C
CASKIN2,0.412,0.8,1.68,-0.0911,49.4 °C,48.8 °C
CCDC88A,0.124,-0.404,1.05,-0.1,49 °C,49 °C
CDK13,-0.604,-0.541,0.202,0.194,50.9 °C,52.5 °C
CHD4,-0.471,3.38,8.56,0.0937,46.9 °C,49.1 °C
CIAO1,-0.222,-0.588,-2.26,-0.176,52.5 °C,52.9 °C
CKAP5,0.0443,-0.177,-0.509,-0.078,49.6 °C,49.2 °C
CLPX,0.103,2.55,0.77,-0.0641,50.6 °C,50.2 °C

Substance,solubility in G1/S (log2) (HeLa Kyoto [1]),thermal stability score (HeLa Kyoto [2]; [5]),thermal stability score (HeLa Kyoto [2]; cell cycle stage: mitosis),solubility change mitosis (log2) (HeLa Kyoto [3]),melting temperature (HeLa Kyoto [4]; cell cycle stage: G1/S),melting temperature (HeLa Kyoto [4]; cell cycle stage: mitosis)
COL5A2,-0.0207,2.88,0.949,0.0391,54.6 °C,57.9 °C
CSNK2B,0.227,0.696,0.623,0.0236,50.8 °C,51.1 °C
CTBP2,0.144,-2.44,-6.63,-0.0285,55.3 °C,53.4 °C
DCK,0.17,2.05,2.37,-0.103,53.9 °C,53.1 °C
DENND4C,0.0629,0.187,0.554,-0.154,50.6 °C,50.8 °C
DHRS1,0.111,0.897,0.418,0.0211,50.7 °C,51 °C
DIDO1,-0.458,0.743,4.5,0.231,49.1 °C,49.8 °C
DMD,0.235,0.00802,0.278,-0.235,49.9 °C,50.2 °C
DOCK10,-0.189,-1.12,-0.873,-0.143,52.3 °C,51.8 °C
DOCK11,-0.234,0.076,-0.52,-0.145,51.4 °C,51.5 °C
EIF4H,0.374,-1.37,-1.91,0.16,51.3 °C,51.9 °C
EIF5A,0.638,0.791,0.0469,0.0244,49.7 °C,50.7 °C
EMC10,0.514,1.37,0.155,-0.339,52.2 °C,54.1 °C
EPRS,-0.115,-0.525,2.58,-0.127,48.6 °C,49 °C
FAM98A,-0.0181,-1.25,-0.239,0.324,53.4 °C,51.3 °C
FAT1,-0.133,0.357,0.56,-0.025,53.5 °C,53.5 °C
FOCAD,-0.471,-1.09,-1.91,-0.121,52.9 °C,52.4 °C
FRG1,-0.326,0.899,0.827,0.0777,51.2 °C,51.3 °C
GMPPB,-0.038,-1.12,-4.14,-0.108,54.3 °C,54.1 °C
GMPS,0.0167,2.38,1.21,-0.148,51.1 °C,51.6 °C
GOLGA3,0.313,0.197,-1.4,-0.048,51.8 °C,50.4 °C
GOLGB1,0.115,1.43,4.58,-0.0748,48.6 °C,49.9 °C
GPATCH8,-0.561,0.236,4.11,0.335,47.8 °C,49.6 °C

# — the supplement of paper PMC5998384
